T1: full-length human MMRN2 with a His tag overexpressed in HEK293T cells (human, UniProt Q9H8L6 23-949)
T1 construct: Used as lysate of transfected HEK293T cells; also called hMMRN2; MMRN2 protein lysate; not shown: His tag of the pHL-Avitag3 vector
T1 sequence: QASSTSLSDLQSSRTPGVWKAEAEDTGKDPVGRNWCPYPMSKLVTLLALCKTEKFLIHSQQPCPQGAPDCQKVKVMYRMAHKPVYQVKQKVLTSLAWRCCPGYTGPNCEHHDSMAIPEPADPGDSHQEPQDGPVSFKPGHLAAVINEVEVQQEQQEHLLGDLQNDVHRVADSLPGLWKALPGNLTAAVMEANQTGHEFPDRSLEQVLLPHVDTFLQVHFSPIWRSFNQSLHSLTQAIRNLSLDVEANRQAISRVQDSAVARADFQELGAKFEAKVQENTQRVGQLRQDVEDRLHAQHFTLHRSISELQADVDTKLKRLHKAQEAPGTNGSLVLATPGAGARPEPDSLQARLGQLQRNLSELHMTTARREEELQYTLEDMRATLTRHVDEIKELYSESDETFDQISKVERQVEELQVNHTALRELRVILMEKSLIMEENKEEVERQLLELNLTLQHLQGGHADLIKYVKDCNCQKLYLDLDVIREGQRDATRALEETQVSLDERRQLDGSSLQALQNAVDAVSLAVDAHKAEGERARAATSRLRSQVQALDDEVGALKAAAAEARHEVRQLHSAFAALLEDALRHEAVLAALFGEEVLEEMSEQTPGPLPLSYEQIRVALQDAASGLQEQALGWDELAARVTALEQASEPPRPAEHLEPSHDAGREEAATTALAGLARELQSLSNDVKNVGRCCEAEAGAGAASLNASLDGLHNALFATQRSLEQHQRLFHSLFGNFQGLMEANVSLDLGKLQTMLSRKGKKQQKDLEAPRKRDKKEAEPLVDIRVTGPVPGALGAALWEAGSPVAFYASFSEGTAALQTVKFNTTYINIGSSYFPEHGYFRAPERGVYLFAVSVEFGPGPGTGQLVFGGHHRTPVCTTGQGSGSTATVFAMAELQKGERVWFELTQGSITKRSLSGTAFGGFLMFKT

T2: CLEC14A with regions 122-142 of CD141 (human, UniProt Q86T13 22-490)
T2 construct: also called 122-142 chimera; not shown: C-terminal GFP tag (all constructs have one)
T2 sequence: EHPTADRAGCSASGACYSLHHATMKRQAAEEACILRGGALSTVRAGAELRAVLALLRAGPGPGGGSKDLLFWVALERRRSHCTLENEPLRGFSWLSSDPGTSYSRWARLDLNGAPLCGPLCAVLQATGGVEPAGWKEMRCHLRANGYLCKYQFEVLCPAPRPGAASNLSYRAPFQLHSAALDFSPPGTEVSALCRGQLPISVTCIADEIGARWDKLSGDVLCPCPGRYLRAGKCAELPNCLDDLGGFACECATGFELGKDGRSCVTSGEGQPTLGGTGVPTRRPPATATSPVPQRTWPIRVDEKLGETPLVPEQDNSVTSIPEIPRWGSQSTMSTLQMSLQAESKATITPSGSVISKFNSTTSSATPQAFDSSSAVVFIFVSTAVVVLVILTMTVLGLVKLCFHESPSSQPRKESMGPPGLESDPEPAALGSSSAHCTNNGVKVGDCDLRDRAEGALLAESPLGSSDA

B1: CLEC14A with regions 97-108 of CD141 (receptor)
chain: EHPTADRAGCSASGACYSLHHATMKRQAAEEACILRGGALSTVRAGAELRAVLALLRAGPGPGGGSKDLLFWVALQLPPGCGDPKRLPLRGFSWLSSDPGGLESDTLQWVEEPQRSCTARRCAVLQATGGVEPAGWKEMRCHLRANGYLCKYQFEVLCPAPRPGAASNLSYRAPFQLHSAALDFSPPGTEVSALCRGQLPISVTCIADEIGARWDKLSGDVLCPCPGRYLRAGKCAELPNCLDDLGGFACECATGFELGKDGRSCVTSGEGQPTLGGTGVPTRRPPATATSPVPQRTWPIRVDEKLGETPLVPEQDNSVTSIPEIPRWGSQSTMSTLQMSLQAESKATITPSGSVISKFNSTTSSATPQAFDSSSAVVFIFVSTAVVVLVILTMTVLGLVKLCFHESPSSQPRKESMGPPGLESDPEPAALGSSSAHCTNNGVKVGDCDLRDRAEGALLAESPLGSSDA
notes: also called this mutant; not shown: C-terminal GFP tag (all constructs have one)

Experiments:
[1] = molecular target: T1, full-length human MMRN2 with a His tag …; test: far Western blot of HEK293T lysates with MMRN2 protein lysate, non-reduced
Excerpt: FIG. 13—MMRN2 directly binds to either the C-type lectin or sushi domain of CLEC14A under non-reduced conditions. HEK293T cells were mock transfected or transfected with pCS2 vectors containing CLEC14A wild type (WT) or constructs with each major domain deleted (Δ) with an N-terminal HA tag. Upon far western blotting with MMRN2 protein lysate, binding can be seen in all mutants except those missing the C-type lectin domain (CTLD) or the sushi domain. An anti-HA blot was included to show all mutant proteins were expressed.

[2] = molecular target: T3, wild type thrombomodulin with GFP tag expressed in HEK293T cells (UniProt P07204 19-575); test: flow cytometry on GFP-gated HEK293T cells
T3 construct: whole, on cells; also called WT CD141; CD141; not shown: C-terminal GFP tag
T3 sequence (P07204 19-575): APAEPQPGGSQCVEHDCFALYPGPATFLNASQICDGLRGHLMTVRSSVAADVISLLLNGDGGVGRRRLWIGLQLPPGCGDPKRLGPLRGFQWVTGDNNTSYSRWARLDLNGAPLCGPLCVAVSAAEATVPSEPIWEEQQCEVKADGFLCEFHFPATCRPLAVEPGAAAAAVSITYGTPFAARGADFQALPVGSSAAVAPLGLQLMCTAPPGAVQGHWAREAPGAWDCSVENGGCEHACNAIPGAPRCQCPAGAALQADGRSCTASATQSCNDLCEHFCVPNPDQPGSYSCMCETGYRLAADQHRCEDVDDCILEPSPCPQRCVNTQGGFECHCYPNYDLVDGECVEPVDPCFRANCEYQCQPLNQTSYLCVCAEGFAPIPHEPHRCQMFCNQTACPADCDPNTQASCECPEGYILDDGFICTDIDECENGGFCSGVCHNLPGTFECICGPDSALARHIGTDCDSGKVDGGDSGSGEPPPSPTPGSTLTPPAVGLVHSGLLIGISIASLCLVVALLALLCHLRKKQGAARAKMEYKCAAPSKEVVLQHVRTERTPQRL
Method: (§1) FIG. 15—Binding of CRT antibodies was analysed using flow cytometry. All constructs have a C-terminus GFP tag so green cells were gated and stained red. All CRT antibodies bind to CLEC14A wild type with a C terminal GFP tag expressed in HEK293T cells. None of the CRT antibodies bind to wild type thrombomodulin with GFP tag expressed in HEK293T cells.
(§2) Binding of CRT antibodies was analysed using flow cytometry. All constructs have a C-terminus GFP tag so green cells were gated and stained red. All CRT antibodies bind WT CLEC14A and—as expected—none binds to WT CD141 (FIG. 15). In addition, none of the antibodies bound to Chimera 5 (except slight binding by CRT2) and all of the antibodies bind to Chimera 6 (except CRT2) (FIG. 15). This confirms that the binding site of the antibodies CRT1, 3, 4 and 5 and MMRN2 are within the C type lectin domain. It is possible that CRT2 binds on a region between the CTLD and sushi domain.

[3] = molecular target: Chimera 6 (CLEC14A with SUSHI of CD141) fused to GFP tag; test: flow cytometry on GFP-gated HEK293T cells
Method: as §1, §2

[4] = molecular target: T2, CLEC14A with regions 122-142 of CD141; test: flow cytometry; the filing says the chimera did not fold correctly
[5] = molecular target: B1; test: flow cytometry on HEK293T cells
[6] = molecular target: T1, full-length human MMRN2 with a His tag …; test: method for MMRN2 not told

| binding result [1] | binding result [2] | binding result [3] | binding result [4] | binding result [5] | binding result [6] | Binder |
| --- | --- | --- | --- | --- | --- | --- |
| binds | – | – | – | – | – | HA-CLEC14A (CLEC14A wild type with an N-terminal HA tag) expressed in HEK293T cells (receptor, also called CLEC14A wild type (WT); not shown: N-terminal HA tag) EHPTADRAGCSASGACYSLHHATMKRQAAEEACILRGGALSTVRAGAELRAVLALLRAGPGPGGGSKDLLFWVALERRRSHCTLENEPLRGFSWLSSDPGGLESDTLQWVEEPQRSCTARRCAVLQATGGVEPAGWKEMRCHLRANGYLCKYQFEVLCPAPRPGAASNLSYRAPFQLHSAALDFSPPGTEVSALCRGQLPISVTCIADEIGARWDKLSGDVLCPCPGRYLRAGKCAELPNCLDDLGGFACECATGFELGKDGRSCVTSGEGQPTLGGTGVPTRRPPATATSPVPQRTWPIRVDEKLGETPLVPEQDNSVTSIPEIPRWGSQSTMSTLQMSLQAESKATITPSGSVISKFNSTTSSATPQAFDSSSAVVFIFVSTAVVVLVILTMTVLGLVKLCFHESPSSQPRKESMGPPGLESDPEPAALGSSSAHCTNNGVKVGDCDLRDRAEGALLAESPLGSSDA |
| – | no binding | binds | no binding | no binding | – | CLEC14A monoclonal antibody C4 (antibody, V domains shown, Mouse monoclonal antibody raised against murine CLEC14A-Fc; The entries carry cloning residues (N-terminal MA on VH, C-terminal AA on VL); also called CRT4; clone C4) VH: QVQLQQSGAELMKPGASVKISCKATGYTFSSYWIEWVNRRPGHGLEWIGEILPGSGSTNYNEKFKGKATFTADTSSNTAYMQLSSLTSEDSAVYYCARGGDYDEEYYLMDYWGQGTTLTVSS VL: QIVLTQSPAIMSASPGEKVTMTCSASSSVSYMYWYQQKPGSSPRLLIYDTSNLASGVPVRFSGSGSGTSYSLTISRMEAEDAATYYCQQWSSYPLTFGAGTKLEIKR |
| – | no binding | – | no binding | no binding | – | CLEC14A monoclonal antibody C5 (antibody, V domains shown, CLEC14A monoclonal antibody; also called CRT5) VH: AEVQLQQSGAELMKPGASVKISCKATGYTFSSYWIEWVNQRPGHGLEWIGEILPGSGSTNYNEKFKGKATFTADTSSNTAYMQLSSLTSEDSAVYYCARGGDYDEEYYAMDYWGQGTSVTL VL: QIVLTQSPAIMSASPGEKVTMTCSASSSVSYMYWYQQKPGSSPRLLIYDTSNLASGVPVRFSGSGSGTSYSLTISRMEAEDGATYYCQQWSSYPLTFGAGTKLELKR |
| – | – | – | – | – | no binding | B1 |

From patent US20180282418A1 (CANCER RESEARCH TECHNOLOGY, published 2018)
